# Assay results published in article PMC9993454.
# Target: CD16a on NK cells of cynomolgus monkey peripheral blood (cynomolgus monkey (endogenous on NK cells of peripheral blood)) (UniProt Q8SPW2)
# Assay: flow cytometry on cells; cynomolgus monkeys given HpmAb1/D1632 (0.5-20 mg/kg s.c., day 0) or IVIG (1 g/kg i.v., days 0 and 1) and anti-platelet antibody on day 1; blood NK cells (CD45+CD14-CD159a+) stained with Fc-competing anti-CD16 3G8 (unoccupied CD16a) and non-competing DJ130c (all CD16a); free ratio and receptor occupancy (RO) against baseline (day 0)
# Chain of UniProt Q8SPW2 (Q8SPW2 17-254): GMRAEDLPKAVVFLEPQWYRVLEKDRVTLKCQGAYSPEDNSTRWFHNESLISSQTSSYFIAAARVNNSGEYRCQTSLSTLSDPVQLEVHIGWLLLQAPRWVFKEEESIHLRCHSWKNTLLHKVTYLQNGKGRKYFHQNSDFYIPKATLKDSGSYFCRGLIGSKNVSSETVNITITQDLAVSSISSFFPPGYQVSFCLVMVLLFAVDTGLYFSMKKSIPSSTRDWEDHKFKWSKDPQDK
substance,measurement,value
Intravenous immunoglobulin (IVIG) (antibody),"free ratio (unoccupied CD16a on NK cells, % of baseline) on day 1",40.3%
